Data: patent US6218168A, “Process for preparing O-acetylserine, L-cysteine and L-cysteine-related products” (Consortium fur elektrochemische Inudstrie GmbH, priority 1995, dated 2001)

Tests used:
serine acetyltransferase = experiment: Serine acetyltransferase enzyme activity test with and without L-cysteine (inhibitor constant Ki, specific activity); assay type: biochemical, E. coli; conditions: for Ki: inhibitor L-cysteine
From the text: Any method which enables the activity of the serine acetyltransferase to be determined in the presence of cysteine can be used for determining the cysteine sensitivity of this enzyme. For example, the serine acetyltransferase activity can be determined using the method described by Kredich and Tomkins, J. Biol. Chem. 241: 4955-4965 (1966). In this test, the enzyme test mixture contains the substrate, L-serine, and the cofactor, acetyl-coenzyme A. The reaction is started by adding enzyme and monitored, in a spectro photometer, by observing the decrease in absorption at 232 nm which is elicited by the cleavage of the thioester bond in the acetyl-coenzyme A.
The above-described enzyme test is suitable for determining the cysteine sensitivity of any serine acetyltransferase enzyme, including the enzymes which have a modified carboxyl terminus. Inhibition of the serine acetyltransferase activity is tested in the presence of differing concentrations of L-cysteine in the reaction mixture. The catalytic activity of the different serine acetyltransferase enzymes is determined in the presence and absence of L-cysteine, and the inhibitor constant, Ki, is ascertained from this (Kredich and Tomkins, J. Biol. Chem., 241, 4955-4965 (1966)).
In order to investigate the biochemical basis of the cysteine secretion of the revertants, the activity of the serine acetyltransferase was determined in vitro, and the ability of cysteine to inhibit the enzyme was measured. For the determination, use was made of S30 extracts (cell homogenates centrifuged at 30,000 g and 4° C. for 20 minutes) of the selected revertants, the starting strains and the comparison strain, E. coli W3110 (ATTC 27325).
The biochemical parameters such as enzyme activity and inhibitor constant, Ki, were determined in an analogous manner to that described in Example 1.
The plasmids resulting from this cloning were designated pACYC184/cysE-Del in accordance with the extent of their deletion (cf. FIG. 9 for the plasmid map). Determination of the enzymic activity and the inhibitor constant, Ki, and also the cross-feeding test, were carried out in analogy with the description in Example 1. DNA sequence analysis was used to confirm that the deletions had been correctly introduced.
Determination of the enzymic activity and of the inhibitor constant Ki, and also the cross-feeding test, were carried out in analogy with the description in Example 1.

[1] = system: Corynebacterium glutamicum ATCC21851; experiment: Cysteine production by fermentation using corynebacteria with pWST1-cysE plasmids; assay type: cell-based; conditions: allele on pWST1 plasmid; compared with cysEIV, cysEX, cysEXIV
From the text: The feedback-resistant cysE alleles, cysEIV, cysEX, cysEXI and cysEXIV (cf. Tab. 2 in Example 1), were cleaved out of their corresponding plasmids using the restriction enzymes BamHI and EcoRI (from Boehringer Mannheim) and each respective 1.15 kb-sized DNA fragment was purified through an agarose gel and isolated. The respective DNA fragment was rendered blunt-ended using the Klenow fragment of E. coli DNA polymerase I (from Boehringer Mannheim). The vector pWST1 was hydrolyzed with the restriction enzyme Smal (from Boehringer Mannheim) and ligated to the blunt-ended DNA fragment using T4 DNA ligase. The vector pWST1 is an E. coli/Corynebacterium shuttle vector and can replicate both in E. coli and in corynebacteria. The corynebacterial replicon of this vector originates from the Corynebacterium glutamicum strain ATCC 19223. The preparation of vector pWST1 is described in U.S. Pat. No. 4,965,197. The ligation mixture was used to transform the mutant JM15, which is auxotrophic for cysteine. The complementing plasmids were designated pWST1-cysEIV, pWST1-cysEX, pWST1-cysEXI and pWST1-cysEXIV in accordance with their inserted cysE alleles.
The pWST1-cysE plasmids were used to transform the Corynebacterium glutamicum ATCC21851. The transformation was carried out by electroporation using the technique described in detail in Liebl, W. et al., 1989, FEMS Microbiol. Letters, 65, 299-304. […]

B1: cysEXI: double mutant Thr167->Ala167, Gly245->Ser245 (protein, UniProt P0A9D4 1-273, looked up, variant T167A G245S)
Serine acetyltransferase: MSCEELEIVWNNIKAEARTLADCEPMLASFYHATLLKHENLGSALSYMLANKLSSPIMPAIAIREVVEEAYAADPEMIASAACDIQAVRTRDPAVDKYSTPLLYLKGFHALQAYRIGHWLWNQGRRALAIFLQNQVSVTFQVDIHPAAKIGRGIMLDHATGIVVGEAAVIENDVSILQSVTLGGTGKSGGDRHPKIREGVMIGAGAKILGNIEVGRGAKIGAGSVVLQPVPPHTTAAGVPARIVSKPDSDKPSMDMDQHFNGINHTFEYGDGI
Work on B1 yielded a Ki (serine acetyltransferase; Table 1a, 1 mM L-serine, 0.1 mM acetyl-CoA) of 700 µM, a spec. act. (serine acetyltransferase; Table 1a, serine acetyltransferase activity) of 0.117 µmol/min/mg and a Ki (serine acetyltransferase; Table 2, alleles from chemical mutagenesis) of 700 µM. The cysteine yields [1] was “highest cysteine yields”.
